This is an account of results in PMC4756840, “The RNA-binding protein LARP1 is a post-transcriptional regulator of survival and tumorigenesis in ovarian cancer”.

Data set [1] concerns the target T1, LARP1 full length (UniProt Q6PKG0-3 1-1019). Briefly: EMSA; judged non-specific; Kd only in figure; 20 mM Tris-HCl pH 8, 150 mM NaCl, 10% glycerol, 1 mM DTT, 1 ug BSA, 0.5 ug tRNA, RNA <2 nM, 30 min on ice; native PAGE at 4 C. As to conditions: protein: recombinant; tags: N-terminal 6xHis-MBP, removed by TEV cleavage; label: 5'-32P. For orientation: Mobility shift assays separate free from complexed probe on a gel.

In data set [2] the target is T1, LARP1 full length. Briefly: competition; vs 32P-RPS6, 1-30 uM cold RNA; 20 mM Tris-HCl pH 8, 150 mM NaCl, 10% glycerol, 1 mM DTT, 1 ug BSA, 0.5 ug tRNA, RNA <2 nM, 30 min on ice; native PAGE at 4 C. The following applies: protein: recombinant; tags: N-terminal 6xHis-MBP, removed by TEV cleavage; label: 5'-32P in direct EMSA.
Data set [3] has as its target T1, LARP1 full length. Briefly: EMSA; tRNA and BSA present; Kd only in figure; 20 mM Tris-HCl pH 8, 150 mM NaCl, 10% glycerol, 1 mM DTT, 1 ug BSA, 0.5 ug tRNA, RNA <2 nM, 30 min on ice; native PAGE at 4 C. As to conditions: protein: recombinant; tags: N-terminal 6xHis-MBP, removed by TEV cleavage; label: 5'-32P in direct EMSA.

B1: BCL2 3' UTR construct 1 (ssRNA)
RNA: GGCUCCACCUGGAUGUUCUGUGCCUGUAAACAUAGAUUCGCUUUCCAUGUUGUUGGCCGGAUCACCAUCUGAAGAGCAGACGGAUGGAAAAAGGACCUGAUCAUUGGGGAAGCUGGCUUUCUGGCUGCUGGAGGCUGGGGAGAAGGUGUUCAUUCACUUGCAUUUCUUUGCCCUGGG
Take B1: the binding signal in the data set with LARP1 full length [1] is ~0.25 affinity relative to BCL2 construct 3.

B2: OAZ1 3' UTR (ssRNA)
RNA: GGCCGCCUCGGGGCUGGGCAUCCGGCCCCUGGGGCCACCCCUUGUCAGCCGGGUGGGUAGGAACCGUAGACUCGCUCAUCUCGCCUGGGUUUGUCCGCAUGUUG
For the molecule B2, the binding result with LARP1 full length [2] was “no binding”.

B3: BCL2 3' UTR construct 4 (ssRNA)
RNA: GCCCUCCAGAUAGCUCAUUUCAUUAAGUUUUUCCCUCCAAGGUAGAAUUUGCAAGAGUGACAGUGGAUUGCAUUUCUUUUGGGGAAGCUUUCUUUUGGUGGUUUUGUUUAUUAUACCUUCUUAAGUUUUCAACCAAGGUUUGCUUUUGUU
Consider B3, for which the binding signal with LARP1 full length [1] was ~0.25 affinity relative to BCL2 construct 3.

B4: BCL2 3' UTR construct 2 (ssRNA)
RNA: GCCCUCCUGCCCUCCUUCCGCGGGGGCUUUCUCAUGGCUGUCCUUCAGGGUCUUCCUGAAAUGCAGUGGUGCUUACGCUCCACCAAGAAAGCAGGAAACCUGUGGUAUGAAGCCAGACCUCCCCGG
As to B4, the binding signal with LARP1 full length [1] is ~0.25 affinity relative to BCL2 construct 3.

B5: BCL2 3' UTR construct 3 (ssRNA)
RNA: GCCUGUUUUGUCUUUUGUUGUUGUUCAAACGGGAUUCACAGAGUAUUUGAAAAAUGUAUAUAUAUUAAGAGGUCACGGGGGCUAAUUGCUGGCUGGCUGCCUUUUGCUGUGGGGUUUUGUU
B5: the binding signal with LARP1 full length [3] is ~4 fold higher affinity than other BCL2 constructs.
